The results in this text go back to the DeepSol protein solubility set.

A short description of the series: soluble on expression in E. coli; label from the status in PepcDB or PDB records.
Regarding “MFLDRERELQFLERRYEMGGPEFIVIYGRRRVGKTALLLEFISRHGGIYLLARETSNLENLKRFSDRLSEYFGDDFLKRNPFQNWDAFLEYLNQKATERLVVVIDEFPYLVKGDRSLPSILQEYWDLKLSNGRIFLIICGSSISMMEKLLGYKSPIYGRRTGQINLKPVDFLHAREFLPGYSLEDFIKAYGILGGSPAHLLEFDDSKTIKENLLEYLRSDSLLYQDAFFVLREELEEPRNYFAIMEAVAAGKTSLGEIMNETGLSRATVAKYLSVLIELDFVKREIPITASRKSRRGRYYIKDNYFAFWFRYIHPNIDFIESERRKELLELIIDDLPNYLGGIFENVAIEFLPLISNKLPFKPLKIGRWWHKNEEIDLVAFNEKEEKAILIEVKWKTLNKIEANKILKDLNRKSKILKMKEWEQYHGIIAKRVKDKEKIKGGLIWDLEDIENLKFSPELEHHHHHH”, the “soluble on expression in E. coli” value was “not soluble”. With “MSQMELIKKLREATGAGMMDVKRALEDAGWDEEKAVQLLRERGAMKAAKKADREAREGIIGHYIHHNQRVGVLVELNCETDFVARNELFQNLAKDLAMHIAMMNPRYVSAEEIPAEELEKERQIYIQAALNEGKPQQIAEKIAEGRLKKYLEEVVLLEQPFVKDDKVKVKELIQQAIAKIGENIVVRRFCRFELGA” the entry was “soluble”. As for “MAIYYNGLKIESNEEVYEPAEDTFLLAESLLDEVKSDDIVLDVGTGTGILALLAARRARFVVGLDINEKAINLAWKNAKINGIKNVVFILSDLFENIRGTFDLIVFNPPYLPGEEIKDKVDLALIGGKTGGEVISRFLGSVKDYLSSRGRILLIYSSLTGLDVEKAFKERGFSTSIVKRRRFFFEELYVMKAELSSRL”, the “soluble on expression in E. coli” value is listed as “soluble”. With “MVYFGRAKTLSHRHPNTGSGGCVFSLKTVLLYQQDSYLREFEARVEEASGGRVVLDRTAFHPGPHGGLDTDTGYIFYGDKRYRVVRAAVEGDVVAHYLDSDTATLEPGAVVKGVIDWERRYRMMRLHTFSHILAAVLYEKHDVLVTGGHITPDYGKDDFSIEGGGWREVIEEAFREANEIASRCIEVKVYWLPREEALKIPGIVKLANKLPPEVETLRIVEIPGVDVQADGGPHVRNTCEIGRVVITKLESKGKRRKRVYYTLEEALEPTPEAP” the entry was “not soluble”; with “MSLVDMVNRPYERAFEQHALANPDVLCISADLTSSCEIDKFRDNHPDQFLSMGMAEQNMMSFCGGLGLAGFRPFVHTFGVFTYRRPYDQLMASIAYPRRKVRIMGFLPGITTPGGMTHQAIEDIAVMRSMPNMTILETGDATEVESICAAADSIDGPVYCRVLRGSVPRLFDTPIKVGEMREISLGDDVLIVTAGITTEEAMRATRALEAAGVSVRHLHLHTIKPFDAGALLDHIGAVRGGVITLENHVTEGGIGSLVAEVMADNGIGKKLRRLGLKDTYAHGGSRAYLMRYYGLDALALTRGVEDLLGQPLGITEEDLAQARVEAVHSLAKAEGEGHHHHHH”, “not soluble”. To “MGHHHHHHSHMLACCAIYSPVRCAFPYTETERRFTCKRRIFRIILTLCGRENMKIRALLVAMSVATVLTGCQNMDSNGLLSSGAEAFQAYSLSDAQVKTLSDQACQEMDSKATIAPANSEYAKRLTTIANALGNNINGQPVNYKVYMAKDVNAFAMANGCIRVYSGLMDMMTDNEVEAVIGHEMGHVALGHVKKGMQVALGTNAVRVAAASAGGIVGSLSQSQLGNLGEKLVNSQFSQRQEAEADDYSYDLLRQRGISPAGLATSFEKLAKLEEGRQSSMFDDHPASAERAQHIRDRMSADGIK” belongs “not soluble”; to “MGSDKIHHHHHHMIASKSKQLVYNGRFTTQKTTGVQRVARELIAALIKFQPQDPVTVLVPPRPGVAVSGAKTVEVGFYKGVVWEQLILPLFARRGRIVNLGNSASIFLGNQIIYMHDAAVFDTPAHFSRPFRVWYRIMFWILARTSVCVLTNSRFSRDRLAHHCGVSAEKIRVVPLGADHLDALEPDTSVLDKHALTPDRFVLAVSSMNPTKNFGRLIAAFRQIGDPSVDLVIVGMQNTTVFGKHDPVGAPEPNIKYVGYISDEQLKALYQNAACFLYPSIYEGFGIPPLEAMRYGCPALVGKSAALPEVCADAALYCDPYSQDDIARKLRSLLDSPELRAELKRKGIAHAEQYRWSRSAEMMKAIFETL”, “not soluble”. “MSLPANKLVFVGGMGAGKTTAVRAISDVEPVSTEMPLSQDAYGDKTYTTVALDYSSIELEDGELLHVYGVPGQKYLDFMWPLVCDGALGVIVLTSARDTQMRDTTLELLREFSRITPEASLAVGVTMTDEVQEFLLPPFREALVAEGFRIPVMRVDARSATQITFLVKTLLSYRYTSAPVLEHHHHHH”: the “soluble on expression in E. coli” value was “soluble”.

In the case of “MSLILVTGAAGFIGSHLCEQLLMNEKVSVVGVDGHIDSSLCKVKERNVRNLLKHPRFTLLKQDLLTIDLEPLVDQVDVIYHLSGIPGVRSSWGTDFKKYVTHNIVATQQLLEACRRHSLEKFIYISTSSVYGQKNGKVGEKASPTPLSPYGVSKLTGEHLCNVYYRNFSIPTVILRYFTVYGPRQRQDMAFHRFIKAIIDNQPIPIFGDGNQSRDFTYIDDCIAATCAVLHADVIGETINIGGKERATVLQIISMLESIFQKDAKLQFLEKPFGEPMSTWADISKAEKLLRYSPNVPLLQGIEKEVDEGHHHHHH”, the “soluble on expression in E. coli” value was “soluble”. To “MQPKVTVAQAAELMGVSDRTIRKKIEEGEITAEPAQSAKGKGRPGYLIPVSSLPVDAQRKYWTTSEVAAASEIGEAEPDKPETTGIPYTLAELEHAVGKEKFQEMMAEAEYRLQIVEQAMNPPQGVERTIWINRLAKKYGKSTATIYRDIEKFQEWGILGLMRKSRLLTQGPQRTSIEPEVERFIRAKYLDRRKPKPAHIFRETVRFCATNGYKAPSRASVFRYISDMERYEPDLCCLAREGEEAYWKKFAEKATRKEPEFVNQVWMGDHHKLDMFISYKGKPVRPWLTVWFDVCSRVVVGWCLSVQANGRTIALALRHALLPKKIKRDDGTEDVLEIGGIPGMIYIDNGEDYKAQVRAGKKHEDWELSRETRGICASLDIKVQFATPYHPWAKAHVERFFGTFTDQFTRYQPGWCGPNNEDRPEGFDEKELHEKGLLLDLEELSERIDTWLYEYHTTEHRSLGMTPMQKHFSTPKIREGFADERALDICLMDVERAAVTPNGIERFGTRGRKRWYWHPELPAYAGQKVIIRYDPNRIGELLVFHPKTGKYLFTATNKELLDFNATKDDIQELQKRRASRRKAVKEMVRNAQQASLENIVAEREAAGSRMTSGKAGSTKGKVRAMIGTEQVVRQREEQANLAKTKRPTKTTSAFDDYILREGTEG” belongs “not soluble”; to “MSLIMKVVVKVGSNLLVGSSGLRKSYIAELCREVARLKSQGHEISIITSGARAAGFTYLGKGKRTQDLHIKQALCAVGQVQLMKVYENAFDFYGIKIAQILLTRDTFSNRKRYLNLRNTLIGLSEFDVVPIVNENDTVATEEITLGDNDTLAAMFSIAWDADFLVLFTTVDGVIDENGKLVERFDESVKLKDMGKSSWGTGGIRSKIESALMASRCGVKATICSGNDVSNLTRFVKGEPVGTVFEPQGRLKAKKAWIAFLSEPAGKIYVNKGAEEALKSGNSLLPVGVTGVEGTFDVGDVVEIVNEEGELVGRGIVNYSSSDLEKIAGHKSSDLKKILGYEGNKVVVHIDNMWVAEGHHHHHH”, “soluble”; to “MREVKAFVTQDIPLYHNLVMKHIPGADPELVLLNHYYEELDRIPLFEMTRAEINKLLAELGFYKKDHPEDQVPEEFRFSPAKDSPFEGRQSSTAAPETTEPSDSQHTDL”, “soluble”. To “MGSDKIHHHHHHMNLKSGYPFWSIRNGLMRPYPRLEQDTHCEVAIIGGGVTAALIAHELLRHGHEVVVIEQREIGWGSTSASTALLQYEIDTPMVDLAAQYGMPAAALAYGACAKAILDLQELCDGLGGCDFTRQDSLYYASRARDLKDLQRELDARKTHALPVEWIAGDALWHDYGVRSEGAILSRLAASVDPYRLCYRLFAECEQYGGRIYDRSPIATLQAHDQHVDLRTQDGVNVRARHVIMAAGYGNQQWLSQRVARNRSSYAFVTDPLHDTDVGALKHTMMWETARPYLYVRTTADGRVVAGGEDDSIDIPARRDARVLSKMDTLLKKIAKVMPDVRLRPVFAWGGTFAETADGLPFFGTHSEHGPRVAFAMAYGGNGITYSAIGAGLLRAQLEGRAYPLSDLFGFSRLG” belongs “not soluble”.

With “MATQQAKILCCGDVNGNFVELIKKISTTEKKNGPFDSLFCVGEFFGDDDDSNEKVINGNIEFPIPTYILGPANPRYSYLYPEESIEFSSNLTYLGKKGLLNTASGLQIAYLSGVEGSSKDLSCFDKADVEELLIPLGTQVGFSGTDILLTSVWPADIARHSHNQPSKPQPGSVLLSKLAAHLKPRYHFAGLGVHYERQPYRNHRVLLEPARHTTRFIGLAAIGNPEKQKWLYACNVKPMRKMEKEELTAQPPNASEFPYRELLEEIAAKETLSRMNGNGQRPEGSQYRFEMGGAEDGAGNGRKRHNDGGNDGPRNKQPVGPCWFCLSNVDAEKHLVVAIGNKCYAAMPKGPLTEDHVMVLSVGHIQSQVSAPVEVRDEIEKFKSAFTLMANKQGKALVTFERNFRTQHLQVQMVMIDKSSSKALKSSFTTAAACAGFELVTMGPDESLLDMVNEGCPYFVAELPDGSKLFTRSMKGFPLHFGREVLASTPILDCEDKVDWKACVLAKEKEVELVNKLKSDFKPFDFTAEDDSD”, the “soluble on expression in E. coli” value is “not soluble”.

As to “SLIKEQASKLIKEIVNQISSLASISNFVLLFPRLDFKGLGYIPQLFFIFVKHDLIEENLSSVSSARAVIDFTNTKSEYVNFNITPRPEIVTINKGILSSIYDQTLIRALRETPFMNSALEFNSNFIKMQFRQRFNLGVYYSMYSPSVGFHEVVSISSLKLKDTVYLEEVEISLQVKICKTFNILTYKG”, the “soluble on expression in E. coli” value is given as “soluble”. To “AVYGIDAMNPSSRDDFTEFGKLLKDKITQYEKSLYYASFLEVLVRDVCISLEIDDLKKITNSLTVLCSEKQKQEKQSKAK” belongs “soluble”; to “NDNRPVFKEGQVEVHIPENAPVGTSVIQLHATDADIGSNAEIRYIFGAQVAPATKRLFALNNTTGLITVQRSLDREETAIHKVTVLASDGSSTPARATVTINVTDVN”, “soluble”. With “MSQSLFSQPLNVINVGIAMFSDDLKKQHVEVTQLDWTPPGQGNMQVVQALDNIADSPLADKIAAANQQALERIIQSHPVLIGFDQAINVVPGMTAKTILHAGPPITWEKMCGAMKGAVTGALVFEGLAKDLDEAAELAASGEITFSPCHEHDCVGSMAGVTSASMFMHIVKNKTYGNIAYTNMSEQMAKILRMGANDQSVIDRLNWMRDVQGPILRDAMKIIGEIDLRLMLAQALHMGDECHNRNNAGTTLLIQALTPGIIQAGYSVEQQREVFEFVASSDYFSGPTWMAMCKAAMDAAHGIEYSTVVTTMARNGVEFGLRVSGLPGQWFTGPAQQVIGPMFAGYKPEDSGLDIGDSAITETYGIGGFAMATAPAIVALVGGTVEEAIDFSRQMREITLGENPNVTIPLLGFMGVPSAIDITRVGSSGILPVINTAIAHKDAGVGMIGAGIVHPPFACFEKAILGWCERYGV” the entry was “soluble”. With “MGSDKIHHHHHHMLMKGVTLRGLEVFEALAKSGSVAQAADITGLSQPAVSQQLRNLEKALGSDLVDHGRRPMVLTSAGRSFLSRTQAILSELRLAQSELTVMDLSHLPALSIGLIDDFDNDLTPRLATILADSLTQCRFKMVTASSHDIHRAMAEKDLHIGVAASTGELRTGVTEYPLVEEPFILVAPRGCITDPDDVGNQLNHLPLLRYARDQLISQQIESHLSRNKMEFDDRFEIGSHLALMAMVARRIGWAITTPLGYMRAVRFHEDIDAYALPFAGFSRRISLFAQSDWPDTVPLEVAGTVRRLTQSQMITPAINRLPWLAGQLRVIEE” the entry was “not soluble”; with “QGALYLVPTPIGNLEDMTFRAIRMLKEADIIAAEDTRNTVKLLNHFEITTRMTSYHQFTKENKEDNIIQRMLDGEVVALVSDAGMPSISDPGYELVQNALNANIPVIPLPGA”, “not soluble”.
